The record followed here is publication PMC10165143 (Computational and Structural Biotechnology Journal, 2023).

Where no end group is shown, it is not given here. [ ]: non-standard residue; d: D form. The star is where a group is joined. FITC = O=C1OC2(c3ccc(O)cc3Oc3cc(O)ccc32)c2ccc(NC(=S)*)cc21; pT = C[C@@H](OP(=O)(O)O)[C@H](N)C(=O)O

Assay [1] addresses T1, Bmh1 (S. cerevisiae 14-3-3 isoform) (S. cerevisiae, UniProt P29311 1-267).
T1 sequence (looked up): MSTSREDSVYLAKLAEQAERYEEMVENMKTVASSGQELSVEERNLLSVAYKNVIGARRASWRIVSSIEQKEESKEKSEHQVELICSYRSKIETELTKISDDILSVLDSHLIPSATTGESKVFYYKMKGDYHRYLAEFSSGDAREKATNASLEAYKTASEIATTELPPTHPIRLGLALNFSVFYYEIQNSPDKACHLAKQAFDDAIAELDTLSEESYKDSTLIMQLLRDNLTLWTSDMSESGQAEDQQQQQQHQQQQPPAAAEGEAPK
Description: fluorescence polarisation. Background: In fluorescence polarisation assays a small probe gives low polarisation when free and higher when bound to something large.

Assay [2] has as its target T2, Bmh2 (S. cerevisiae 14-3-3 isoform) (S. cerevisiae, UniProt P34730 1-273).
T2 sequence (looked up): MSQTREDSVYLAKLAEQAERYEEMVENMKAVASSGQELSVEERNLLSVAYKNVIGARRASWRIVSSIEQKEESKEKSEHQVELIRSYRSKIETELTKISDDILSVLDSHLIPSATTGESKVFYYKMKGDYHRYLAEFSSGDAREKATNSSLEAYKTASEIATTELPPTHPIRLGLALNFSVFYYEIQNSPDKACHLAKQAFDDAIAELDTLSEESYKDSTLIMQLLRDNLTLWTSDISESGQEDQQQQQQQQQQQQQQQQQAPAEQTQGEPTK
Description: fluorescence polarisation.

The term Kd denotes the constant that tells how readily two partners part at equilibrium. Lower therefore signals a tighter complex. Consider {FITC}-RRCF[pT]LLFP [FITC-labeled synthetic Trk1 peptide (FITC-RRCFpTLLFP) with phosphorylated Thr900], for which the Kd in assay [1] amounted to 4 µM; in assay [2], 3.4 µM.
